Measured values: patent publication US20220372155A1 (LYVGEN BIOPHARMA, published 2022)

T1: human B7H4 expressed on CHO cells (human, UniProt Q7Z7D3 25-282)
T1 construct: whole, on cells; also called VCTN1
T1 sequence (looked up): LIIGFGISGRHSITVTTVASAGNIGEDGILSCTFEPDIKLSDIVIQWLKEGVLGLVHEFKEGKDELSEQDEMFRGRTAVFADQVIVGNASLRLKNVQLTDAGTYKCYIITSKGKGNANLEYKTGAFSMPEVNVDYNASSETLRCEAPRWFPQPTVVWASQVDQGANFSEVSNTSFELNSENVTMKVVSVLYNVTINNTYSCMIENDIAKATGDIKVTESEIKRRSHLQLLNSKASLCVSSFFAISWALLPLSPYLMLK

B1: LP3772 (antibody, human IgG4 S228P, kappa)
heavy: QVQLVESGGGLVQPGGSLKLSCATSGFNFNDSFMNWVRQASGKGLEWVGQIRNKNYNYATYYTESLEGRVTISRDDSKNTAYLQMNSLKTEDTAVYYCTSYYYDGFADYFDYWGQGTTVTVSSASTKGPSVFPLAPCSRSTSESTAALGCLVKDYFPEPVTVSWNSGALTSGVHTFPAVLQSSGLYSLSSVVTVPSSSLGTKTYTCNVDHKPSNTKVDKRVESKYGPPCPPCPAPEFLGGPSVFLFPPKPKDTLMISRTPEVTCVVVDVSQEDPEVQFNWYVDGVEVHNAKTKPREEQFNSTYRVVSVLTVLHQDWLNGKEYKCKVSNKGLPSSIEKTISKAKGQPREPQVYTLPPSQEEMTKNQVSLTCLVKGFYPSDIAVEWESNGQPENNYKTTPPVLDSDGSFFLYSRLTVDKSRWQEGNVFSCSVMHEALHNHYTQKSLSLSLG
light: DIQMTQSPSSLSASVGDRVTITCKASQNIYIYLNWYQQKPGKAPKLLIYNTNNLQTGVPSRFSGSGSGTDFTLTISSLQPEDFATYYCLQHSSRRTFGGGTKVEIKRTVAAPSVFIFPPSDEQLKSGTASVVCLLNNFYPREAKVQWKVDNALQSGNSQESVTEQDSKDSTYSLSSTLTLSKADYEKHKVYACEVTHQGLSSPVTKSFNRGEC
notes: VH-2/IgG4, VL-1/kappa
B2: Ly826 (bispecific antibody, human IgG1, kappa)
heavy: EVQLVESGGGLVQPGGSLRLSCAASGFTFTDYTMDWVRQAPGKGLEWVADVNPNSGGSIYNQRFKGRFTLSVDRSKNTLYLQMNSLRAEDTAVYYCARNLGPSFYFDYWGQGTLVTVSSASTKGPSVFPLAPSSKSTSGGTAALGCLVKDYFPEPVTVSWNSGALTSGVHTFPAVLQSSGLYSLSSVVTVPSSSLGTQTYICNVNHKPSNTKVDKKVEPKSCDKTHTCPPCPAPELLGPSVFLFPPKPKDTLMISRTPEVTCVVVDVSHEDPEVKFNWYVDGVEVHNAKTKPREEQYNSTYRVVSVLTVLHQDWLNGKEYKCKVSNKALPAPIEKTISKAKGQPREPQVYTLPPSREEMTKNQVSLTCLVKGFYPSDIAVEWESNGQPENNYKTTPPVLDSDGSFFLYSKLTVDKSRWQQGNVFSCSVMHEALHNHYTQKSLSLSPG
light: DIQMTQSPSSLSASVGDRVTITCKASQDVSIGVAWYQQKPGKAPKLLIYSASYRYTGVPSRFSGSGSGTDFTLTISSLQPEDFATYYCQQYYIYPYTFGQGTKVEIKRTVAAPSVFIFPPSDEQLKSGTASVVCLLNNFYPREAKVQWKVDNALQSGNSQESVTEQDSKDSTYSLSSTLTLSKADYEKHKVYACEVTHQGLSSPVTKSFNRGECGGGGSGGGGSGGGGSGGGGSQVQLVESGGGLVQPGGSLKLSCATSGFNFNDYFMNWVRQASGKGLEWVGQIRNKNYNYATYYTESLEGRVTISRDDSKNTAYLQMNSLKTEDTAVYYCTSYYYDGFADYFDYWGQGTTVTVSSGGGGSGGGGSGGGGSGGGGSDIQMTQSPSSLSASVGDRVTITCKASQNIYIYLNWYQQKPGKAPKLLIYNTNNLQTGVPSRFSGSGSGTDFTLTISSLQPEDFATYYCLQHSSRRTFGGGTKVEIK
notes: Ly591 HC (IgG1 mutated Fc) + Ly591 LC-TM740 scFv VH-VL
B3: Ly828 (bispecific antibody, human IgG1, kappa)
heavy: B2 heavy
light: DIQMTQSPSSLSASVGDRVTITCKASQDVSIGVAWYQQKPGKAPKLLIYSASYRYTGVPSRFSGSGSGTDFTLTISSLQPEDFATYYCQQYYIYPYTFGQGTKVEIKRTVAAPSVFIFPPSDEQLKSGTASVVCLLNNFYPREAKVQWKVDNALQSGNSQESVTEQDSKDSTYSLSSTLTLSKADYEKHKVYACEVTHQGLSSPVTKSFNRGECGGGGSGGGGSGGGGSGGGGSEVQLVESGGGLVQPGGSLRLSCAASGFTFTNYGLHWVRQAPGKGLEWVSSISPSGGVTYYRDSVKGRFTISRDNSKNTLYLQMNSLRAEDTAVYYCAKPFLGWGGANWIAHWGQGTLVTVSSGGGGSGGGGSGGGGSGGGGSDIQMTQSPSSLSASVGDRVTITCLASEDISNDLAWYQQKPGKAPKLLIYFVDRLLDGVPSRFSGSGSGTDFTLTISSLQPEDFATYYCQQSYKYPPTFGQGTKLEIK
notes: Ly591 HC (IgG1 mutated Fc) + Ly591 LC-TM559 scFv VH-VL
B4: Ly827 (bispecific antibody, human IgG1, kappa)
heavy: B2 heavy
light: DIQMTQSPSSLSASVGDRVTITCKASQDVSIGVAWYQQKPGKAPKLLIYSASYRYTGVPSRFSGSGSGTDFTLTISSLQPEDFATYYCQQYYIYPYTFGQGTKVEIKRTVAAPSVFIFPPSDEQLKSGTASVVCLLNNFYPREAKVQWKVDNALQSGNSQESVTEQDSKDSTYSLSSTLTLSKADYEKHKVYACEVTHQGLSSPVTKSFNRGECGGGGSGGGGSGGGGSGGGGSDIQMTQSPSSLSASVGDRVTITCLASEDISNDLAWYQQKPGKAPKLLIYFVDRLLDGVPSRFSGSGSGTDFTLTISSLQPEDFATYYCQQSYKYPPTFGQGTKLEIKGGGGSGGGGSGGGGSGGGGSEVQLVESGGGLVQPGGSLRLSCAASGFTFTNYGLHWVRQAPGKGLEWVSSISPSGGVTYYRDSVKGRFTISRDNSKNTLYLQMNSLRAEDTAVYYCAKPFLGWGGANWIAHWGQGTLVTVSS
notes: Ly591 HC (IgG1 mutated Fc) + Ly591 LC-TM559 scFv VL-VH
B5: Ly836 (bispecific antibody, human IgG1, kappa)
heavy: B2 heavy
light: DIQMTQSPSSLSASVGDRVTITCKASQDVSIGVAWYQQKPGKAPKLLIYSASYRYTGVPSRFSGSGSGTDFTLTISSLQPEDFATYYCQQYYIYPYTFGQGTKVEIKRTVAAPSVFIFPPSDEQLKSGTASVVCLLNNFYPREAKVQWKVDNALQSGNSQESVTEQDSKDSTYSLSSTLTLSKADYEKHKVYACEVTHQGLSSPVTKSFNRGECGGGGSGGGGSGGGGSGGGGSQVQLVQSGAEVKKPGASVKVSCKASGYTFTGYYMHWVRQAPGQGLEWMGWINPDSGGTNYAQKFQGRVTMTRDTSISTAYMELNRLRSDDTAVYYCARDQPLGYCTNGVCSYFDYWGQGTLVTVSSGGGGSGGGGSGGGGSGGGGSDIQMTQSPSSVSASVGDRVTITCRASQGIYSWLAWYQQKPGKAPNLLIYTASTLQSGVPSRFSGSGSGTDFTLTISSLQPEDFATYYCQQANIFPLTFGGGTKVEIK
notes: Ly591 HC (IgG1 mutated Fc) + Ly591 LC-Ly253 scFv VH-VL
B6: Ly835 (bispecific antibody, human IgG1, kappa)
heavy: B2 heavy
light: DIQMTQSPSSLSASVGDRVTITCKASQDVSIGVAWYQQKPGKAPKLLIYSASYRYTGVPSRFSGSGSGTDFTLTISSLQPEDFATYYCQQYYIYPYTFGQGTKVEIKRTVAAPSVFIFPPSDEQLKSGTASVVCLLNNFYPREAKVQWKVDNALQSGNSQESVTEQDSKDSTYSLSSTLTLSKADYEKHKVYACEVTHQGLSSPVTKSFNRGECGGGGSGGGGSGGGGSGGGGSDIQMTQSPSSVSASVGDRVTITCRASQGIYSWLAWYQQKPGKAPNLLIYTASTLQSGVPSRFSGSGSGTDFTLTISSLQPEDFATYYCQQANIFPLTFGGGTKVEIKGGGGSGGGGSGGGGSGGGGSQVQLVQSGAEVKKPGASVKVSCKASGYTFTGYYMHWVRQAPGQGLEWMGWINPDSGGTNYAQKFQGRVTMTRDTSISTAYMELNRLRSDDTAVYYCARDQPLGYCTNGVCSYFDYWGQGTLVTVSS
notes: Ly591 HC (IgG1 mutated Fc) + Ly591 LC-Ly253 scFv VL-VH
B7: Ly488 (bispecific antibody, human IgG1, kappa)
heavy: EVQLVESGGGLVKPGGSLKLSCAASGFTFSDSGMHWVRQAPEKGLEWITYINSGSSTIYYADSVKGRFTISRDNAKNTLFLQMTSLRSEDTAMYYCARGRGYAMDYWGQGTSVTVSSASTKGPSVFPLAPSSKSTSGGTAALGCLVKDYFPEPVTVSWNSGALTSGVHTFPAVLQSSGLYSLSSVVTVPSSSLGTQTYICNVNHKPSNTKVDKKVEPKSCDKTHTCPPCPAPELLGPSVFLFPPKPKDTLMISRTPEVTCVVVDVSHEDPEVKFNWYVDGVEVHNAKTKPREEQYNSTYRVVSVLTVLHQDWLNGKEYKCKVSNKALPAPIEKTISKAKGQPREPQVYTLPPSREEMTKNQVSLTCLVKGFYPSDIAVEWESNGQPENNYKTTPPVLDSDGSFFLYSKLTVDKSRWQQGNVFSCSVMHEALHNHYTQKSLSLSPGK
light: EIVLTQSPTTMAASPGEKITIFCSASSSISSDFLHWYQQKPGFSPKLLIYRISNLASGVPARFSGSGSGTSYSLTIGTMEAEDVATYYCQQGSNVPRTFGGGTKLEIKRTVAAPSVFIFPPSDEQLKSGTASVVCLLNNFYPREAKVQWKVDNALQSGNSQESVTEQDSKDSTYSLSSTLTLSKADYEKHKVYACEVTHQGLSSPVTKSFNRGECGGGGSGGGGSGGGGSGGGGSDIQMTQSPSSLSASVGDRVTITCKASQNIYIYLNWYQQKPGKAPKLLIYNTNNLQTGVPSRFSGSGSGTDFTLTISSLQPEDFATYYCLQHSSRRTFGGGTKVEIKGGGGSGGGGSGGGGSGGGGSQVQLVESGGGLVQPGGSLKLSCATSGFNFNDYFMNWVRQASGKGLEWVGQIRNKNYNYATYYTESLEGRVTISRDDSKNTAYLQMNSLKTEDTAVYYCTSYYYDGFADYFDYWGQGTTVTVSS
notes: Ly366 HC (IgG1 mutated Fc) + Ly366 LC-TM740 scFv VL-VH
B8: Ly493 (bispecific antibody, human IgG1, kappa)
heavy: B7 heavy
light: EIVLTQSPTTMAASPGEKITIFCSASSSISSDFLHWYQQKPGFSPKLLIYRISNLASGVPARFSGSGSGTSYSLTIGTMEAEDVATYYCQQGSNVPRTFGGGTKLEIKRTVAAPSVFIFPPSDEQLKSGTASVVCLLNNFYPREAKVQWKVDNALQSGNSQESVTEQDSKDSTYSLSSTLTLSKADYEKHKVYACEVTHQGLSSPVTKSFNRGECGGGGSGGGGSGGGGSGGGGSEVQLVESGGGLVQPGGSLRLSCAASGFTFTNYGLHWVRQAPGKGLEWVSSISPSGGVTYYRDSVKGRFTISRDNSKNTLYLQMNSLRAEDTAVYYCAKPFLGWGGANWIAHWGQGTLVTVSSGGGGSGGGGSGGGGSGGGGSDIQMTQSPSSLSASVGDRVTITCLASEDISNDLAWYQQKPGKAPKLLIYFVDRLLDGVPSRFSGSGSGTDFTLTISSLQPEDFATYYCQQSYKYPPTFGQGTKLEIK
notes: Ly366 HC (IgG1 mutated Fc) + Ly366 LC-TM559 scFv VH-VL
B9: Ly492 (bispecific antibody, human IgG1, kappa)
heavy: B7 heavy
light: EIVLTQSPTTMAASPGEKITIFCSASSSISSDFLHWYQQKPGFSPKLLIYRISNLASGVPARFSGSGSGTSYSLTIGTMEAEDVATYYCQQGSNVPRTFGGGTKLEIKRTVAAPSVFIFPPSDEQLKSGTASVVCLLNNFYPREAKVQWKVDNALQSGNSQESVTEQDSKDSTYSLSSTLTLSKADYEKHKVYACEVTHQGLSSPVTKSFNRGECGGGGSGGGGSGGGGSGGGGSDIQMTQSPSSLSASVGDRVTITCLASEDISNDLAWYQQKPGKAPKLLIYFVDRLLDGVPSRFSGSGSGTDFTLTISSLQPEDFATYYCQQSYKYPPTFGQGTKLEIKGGGGSGGGGSGGGGSGGGGSEVQLVESGGGLVQPGGSLRLSCAASGFTFTNYGLHWVRQAPGKGLEWVSSISPSGGVTYYRDSVKGRFTISRDNSKNTLYLQMNSLRAEDTAVYYCAKPFLGWGGANWIAHWGQGTLVTVSS
notes: Ly366 HC (IgG1 mutated Fc) + Ly366 LC-TM559 scFv VL-VH
B10: Ly497 (bispecific antibody, human IgG1, kappa)
heavy: B7 heavy
light: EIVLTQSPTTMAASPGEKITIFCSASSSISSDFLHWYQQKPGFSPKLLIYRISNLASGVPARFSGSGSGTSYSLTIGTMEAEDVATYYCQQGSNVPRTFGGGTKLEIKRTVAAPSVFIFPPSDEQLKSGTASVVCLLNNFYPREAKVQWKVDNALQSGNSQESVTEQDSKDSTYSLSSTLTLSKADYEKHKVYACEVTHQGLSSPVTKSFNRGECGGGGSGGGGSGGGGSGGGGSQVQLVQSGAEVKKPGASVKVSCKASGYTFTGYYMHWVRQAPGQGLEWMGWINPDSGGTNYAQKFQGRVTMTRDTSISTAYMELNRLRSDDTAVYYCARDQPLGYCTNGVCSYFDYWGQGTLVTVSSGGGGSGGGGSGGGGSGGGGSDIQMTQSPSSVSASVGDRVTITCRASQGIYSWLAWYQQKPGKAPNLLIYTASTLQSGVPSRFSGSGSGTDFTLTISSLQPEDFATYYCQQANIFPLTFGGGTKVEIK
notes: Ly366 HC (IgG1 mutated Fc) + Ly366 LC-Ly253 scFv VH-VL
B11: Ly489 (bispecific antibody, human IgG1, kappa)
heavy: B7 heavy
light: EIVLTQSPTTMAASPGEKITIFCSASSSISSDFLHWYQQKPGFSPKLLIYRISNLASGVPARFSGSGSGTSYSLTIGTMEAEDVATYYCQQGSNVPRTFGGGTKLEIKRTVAAPSVFIFPPSDEQLKSGTASVVCLLNNFYPREAKVQWKVDNALQSGNSQESVTEQDSKDSTYSLSSTLTLSKADYEKHKVYACEVTHQGLSSPVTKSFNRGECGGGGSGGGGSGGGGSGGGGSQVQLVESGGGLVQPGGSLKLSCATSGFNFNDYFMNWVRQASGKGLEWVGQIRNKNYNYATYYTESLEGRVTISRDDSKNTAYLQMNSLKTEDTAVYYCTSYYYDGFADYFDYWGQGTTVTVSSGGGGSGGGGSGGGGSGGGGSDIQMTQSPSSLSASVGDRVTITCKASQNIYIYLNWYQQKPGKAPKLLIYNTNNLQTGVPSRFSGSGSGTDFTLTISSLQPEDFATYYCLQHSSRRTFGGGTKVEIK
notes: Ly366 HC (IgG1 mutated Fc) + Ly366 LC-TM740 scFv VH-VL
B12: Ly496 (bispecific antibody, human IgG1, kappa)
heavy: B7 heavy
light: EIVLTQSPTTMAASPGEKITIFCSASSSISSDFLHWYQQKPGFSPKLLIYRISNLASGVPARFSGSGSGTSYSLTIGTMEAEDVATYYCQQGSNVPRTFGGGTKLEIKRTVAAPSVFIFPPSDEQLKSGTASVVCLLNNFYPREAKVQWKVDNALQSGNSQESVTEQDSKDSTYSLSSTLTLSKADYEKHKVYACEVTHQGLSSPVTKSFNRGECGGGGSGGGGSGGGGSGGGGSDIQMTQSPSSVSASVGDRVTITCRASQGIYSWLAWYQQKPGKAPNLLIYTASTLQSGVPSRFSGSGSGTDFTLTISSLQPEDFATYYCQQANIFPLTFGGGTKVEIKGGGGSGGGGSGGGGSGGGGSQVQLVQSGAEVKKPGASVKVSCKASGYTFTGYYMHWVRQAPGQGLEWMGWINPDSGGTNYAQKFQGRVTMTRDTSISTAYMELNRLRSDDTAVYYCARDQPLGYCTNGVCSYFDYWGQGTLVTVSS
notes: Ly366 HC (IgG1 mutated Fc) + Ly366 LC-Ly253 scFv VL-VH
B13: Ly486 (bispecific antibody, human IgG1, kappa)
heavy: EVQLVESGGGLVKPGGSLKLSCAASGFTFSDSGMHWVRQAPEKGLEWITYINSGSSTIYYADSVKGRFTISRDNAKNTLFLQMTSLRSEDTAMYYCARGRGYAMDYWGQGTSVTVSSASTKGPSVFPLAPSSKSTSGGTAALGCLVKDYFPEPVTVSWNSGALTSGVHTFPAVLQSSGLYSLSSVVTVPSSSLGTQTYICNVNHKPSNTKVDKKVEPKSCDKTHTCPPCPAPELLGPSVFLFPPKPKDTLMISRTPEVTCVVVDVSHEDPEVKFNWYVDGVEVHNAKTKPREEQYNSTYRVVSVLTVLHQDWLNGKEYKCKVSNKALPAPIEKTISKAKGQPREPQVYTLPPSREEMTKNQVSLTCLVKGFYPSDIAVEWESNGQPENNYKTTPPVLDSDGSFFLYSKLTVDKSRWQQGNVFSCSVMHEALHNHYTQKSLSLSPGGGGGSGGGGSGGGGSGGGGSDIQMTQSPSSLSASVGDRVTITCKASQNIYIYLNWYQQKPGKAPKLLIYNTNNLQTGVPSRFSGSGSGTDFTLTISSLQPEDFATYYCLQHSSRRTFGGGTKVEIKGGGGSGGGGSGGGGSGGGGSQVQLVESGGGLVQPGGSLKLSCATSGFNFNDYFMNWVRQASGKGLEWVGQIRNKNYNYATYYTESLEGRVTISRDDSKNTAYLQMNSLKTEDTAVYYCTSYYYDGFADYFDYWGQGTTVTVSS
light: EIVLTQSPTTMAASPGEKITIFCSASSSISSDFLHWYQQKPGFSPKLLIYRISNLASGVPARFSGSGSGTSYSLTIGTMEAEDVATYYCQQGSNVPRTFGGGTKLEIKRTVAAPSVFIFPPSDEQLKSGTASVVCLLNNFYPREAKVQWKVDNALQSGNSQESVTEQDSKDSTYSLSSTLTLSKADYEKHKVYACEVTHQGLSSPVTKSFNRGEC
notes: Ly366 HC (IgG1 mutated Fc)-TM740 scFv VL-VH + Ly366 LC
B14: Ly366 (chimeric) (antibody, human IgG1, kappa, V domains shown)
VH: EVQLVESGGGLVKPGGSLKLSCAASGFTFSDSGMHWVRQAPEKGLEWITYINSGSSTIYYADSVKGRFTISRDNAKNTLFLQMTSLRSEDTAMYYCARGRGYAMDYWGQGTSVTVSS
VL: EIVLTQSPTTMAASPGEKITIFCSASSSISSDFLHWYQQKPGFSPKLLIYRISNLASGVPARFSGSGSGTSYSLTIGTMEAEDVATYYCQQGSNVPRTFGGGTKLEIKR
notes: chimeric, human IgG1 constant region; also called hybridoma 25F3
B15: Ly361 (chimeric) (antibody, human IgG1, kappa, V domains shown)
VH: EVQLVESGGDLVKPGGSLKLSCAASGFTFSSYGMSWVRQTPDKRLEWVAAISTGGSYTYYPDSVKGRFTISRDTATNTLYLQMSTLKSEDTAMYYCTRRGATGSWFAYWGQGTLVTVSA
VL: DILMTQSPSSMSVSLGDTVSITCHASQGINNNIGWLQRKPGKSFKGLIYHGTNLEDGVPSRFSGSGSGADYSLTISSLESEDFADYYCVQYVQFPRTFGGGTKLEIKR
notes: chimeric, human IgG1 constant region; also called hybridoma 14D3

biological target: T2, human CD40 expressed on CHO cells (human, UniProt P25942 21-277); experiment: FACS, CHO cells
T2 construct: whole, on cells; also used for the reporter cells over-expressing human CD40; also called cellular CD40; CHO-CD40 cells
T2 sequence (P25942 21-277): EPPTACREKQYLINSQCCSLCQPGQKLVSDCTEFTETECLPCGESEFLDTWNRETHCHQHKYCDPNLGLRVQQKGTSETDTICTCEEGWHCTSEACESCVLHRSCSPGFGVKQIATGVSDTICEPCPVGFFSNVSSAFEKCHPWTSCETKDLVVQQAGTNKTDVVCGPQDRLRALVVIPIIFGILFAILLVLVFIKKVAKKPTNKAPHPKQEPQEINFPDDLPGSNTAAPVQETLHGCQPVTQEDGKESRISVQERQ

binding result | Binder
binds | B1
binds | B2
binds | B3
binds | B4
binds | B5
binds | B6
binds | B7
binds | B8
binds | B9
binds | B10
binds | B11
binds | B12
binds | B13

biological target: T1, human B7H4 expressed on CHO cells; experiment: FACS, CHO cells

binding result | Binder
binds | B14
binds | B7
binds | B8
binds | B9
binds | B10
binds | B11
binds | B12
binds | B15
binds | B13
